Measurements published in patent publication US20240301052A1 (LANOVA MEDICINES DEVELOPMENT, published 2024).

T1: human SLC34A2 (human, UniProt O95436 1-690)
T1 sequence (looked up): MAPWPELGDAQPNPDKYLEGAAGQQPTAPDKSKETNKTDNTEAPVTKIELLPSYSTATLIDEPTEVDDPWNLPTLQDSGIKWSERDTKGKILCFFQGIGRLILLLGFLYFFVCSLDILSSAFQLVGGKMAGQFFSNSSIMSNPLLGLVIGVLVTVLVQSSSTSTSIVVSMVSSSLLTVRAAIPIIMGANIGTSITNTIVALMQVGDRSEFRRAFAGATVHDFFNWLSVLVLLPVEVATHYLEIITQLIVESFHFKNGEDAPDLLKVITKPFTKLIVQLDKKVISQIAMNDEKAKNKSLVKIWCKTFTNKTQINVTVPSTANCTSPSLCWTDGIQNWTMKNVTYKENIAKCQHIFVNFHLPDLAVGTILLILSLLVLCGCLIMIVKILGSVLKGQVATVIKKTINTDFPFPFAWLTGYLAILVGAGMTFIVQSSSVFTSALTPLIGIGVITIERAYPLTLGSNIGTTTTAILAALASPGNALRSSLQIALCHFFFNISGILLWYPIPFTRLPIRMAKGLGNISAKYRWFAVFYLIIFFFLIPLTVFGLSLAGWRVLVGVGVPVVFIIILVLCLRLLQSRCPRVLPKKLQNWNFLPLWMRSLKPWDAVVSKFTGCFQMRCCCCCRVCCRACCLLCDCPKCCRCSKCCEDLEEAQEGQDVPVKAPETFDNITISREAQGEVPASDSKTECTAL

T2: Cynomolgus SLC34A2 (Cynomolgus, UniProt A0A2K5UHY1 1-690)
T2 construct: whole, on cells; also called Cyno SLC34A2
T2 sequence: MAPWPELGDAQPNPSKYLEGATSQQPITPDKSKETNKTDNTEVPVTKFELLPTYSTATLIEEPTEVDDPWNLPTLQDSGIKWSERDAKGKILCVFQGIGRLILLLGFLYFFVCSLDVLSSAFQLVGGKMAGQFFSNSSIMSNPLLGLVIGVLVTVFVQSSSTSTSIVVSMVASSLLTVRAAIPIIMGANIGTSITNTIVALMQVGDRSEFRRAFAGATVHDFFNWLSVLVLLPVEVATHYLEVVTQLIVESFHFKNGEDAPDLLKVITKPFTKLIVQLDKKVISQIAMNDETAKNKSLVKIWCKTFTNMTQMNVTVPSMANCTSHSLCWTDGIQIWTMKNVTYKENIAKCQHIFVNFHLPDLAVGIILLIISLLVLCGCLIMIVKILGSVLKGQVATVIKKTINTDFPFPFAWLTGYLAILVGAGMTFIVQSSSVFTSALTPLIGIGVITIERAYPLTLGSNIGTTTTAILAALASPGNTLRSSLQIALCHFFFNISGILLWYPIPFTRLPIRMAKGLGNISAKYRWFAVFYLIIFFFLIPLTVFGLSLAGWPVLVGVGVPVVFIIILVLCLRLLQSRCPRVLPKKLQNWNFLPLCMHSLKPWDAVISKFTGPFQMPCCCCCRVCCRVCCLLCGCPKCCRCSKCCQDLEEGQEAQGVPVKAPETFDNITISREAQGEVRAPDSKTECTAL

T3: Rhesus SLC34A2 (Rhesus, UniProt F7HDA3 1-690)
T3 construct: whole, on cells
T3 sequence: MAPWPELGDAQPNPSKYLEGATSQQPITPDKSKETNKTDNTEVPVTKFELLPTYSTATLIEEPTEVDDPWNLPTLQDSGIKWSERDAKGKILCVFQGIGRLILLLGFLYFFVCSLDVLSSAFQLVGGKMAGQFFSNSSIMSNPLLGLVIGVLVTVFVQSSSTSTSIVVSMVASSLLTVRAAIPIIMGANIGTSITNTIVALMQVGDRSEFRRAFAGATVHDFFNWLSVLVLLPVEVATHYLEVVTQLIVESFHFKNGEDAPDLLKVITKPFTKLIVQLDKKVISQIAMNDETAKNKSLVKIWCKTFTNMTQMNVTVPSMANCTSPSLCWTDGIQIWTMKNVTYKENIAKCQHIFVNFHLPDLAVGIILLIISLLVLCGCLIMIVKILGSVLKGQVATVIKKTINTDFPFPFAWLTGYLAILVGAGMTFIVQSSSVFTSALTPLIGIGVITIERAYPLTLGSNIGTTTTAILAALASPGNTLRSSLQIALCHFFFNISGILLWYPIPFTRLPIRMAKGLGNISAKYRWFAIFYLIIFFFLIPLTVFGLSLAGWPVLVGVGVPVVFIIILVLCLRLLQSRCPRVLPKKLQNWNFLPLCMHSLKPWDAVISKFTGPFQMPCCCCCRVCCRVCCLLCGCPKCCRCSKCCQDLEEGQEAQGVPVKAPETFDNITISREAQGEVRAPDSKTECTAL


Tests used:
human SLC34A2 [1] = target: T1, human SLC34A2; test: cell-based or functional assay
human SLC34A2 [2] = target: T1, human SLC34A2; test: FACS, OVCAR3 cells
How it was run: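 Flow cytometry binding: cells (OVCAR3, or HEK293 transfected with human SLC34A2) exposed 60 min at 4° C to chimeric hIgG1, 8-point 4-fold series starting 200 nM. Washed, stained 30 min at 4° C with fluorescent anti-human secondary, then analysed.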

human SLC34A2 [3] = target: T1, human SLC34A2; test: cell-based or functional assay; remark: listed apart in the source
Cynomolgus SLC34A2 = target: T2, Cynomolgus SLC34A2; test: FACS, cells expressing Cynomolgus SLC34A2
Rhesus SLC34A2 = target: T3, Rhesus SLC34A2; test: FACS, HEK293/Rhesus SLC34A2 cells
Experimental: (§1) Briefly, the Rhesus SLC34A2 expressing HEK293 engineering cells (HEK293/Rhesus_SLC34A2) were incubated with chimeric Abs (from 200 nM, 4 folds dilution, 8 points). After incubation at 4° C. for 60 minutes, the cells were washed with FACS buffer twice, then stained with fluorescent conjugated secondary antibody at 4° C. for 30 minutes. After that the cells were washed twice and analyzed by flow cytometry.

human SLC34A2 [4] = target: T1, human SLC34A2; test: FACS, HEK293/human SLC34A2 cells
Experimental: as §1, with “OVCAR3 cells or HEK293 cells expressing human” for “the Rhesus”, “SLC34A2” for “SLC34A2 expressing HEK293 engineering cells (HEK293/Rhesus_SLC34A2)”, “antibodies” for “Abs”

human SLC34A2 [5] = target: T1, human SLC34A2; test: FACS, RMG-1 cells
Experimental: Based on the foregoing cell-based binding results, some of the chimeric antibodies were selected for further cell based binding on human SLC34A2 expressing cells using flow cytometry. RMG-1 cells were incubated with the selected chimeric antibodies (from 200 nM, 4 folds dilution, 8 points). After incubation at 4° C. for 60 minutes, the cells were washed with FACS buffer twice, then stained with fluorescent conjugated secondary antibody at 4° C. for 30 minutes. Afterwards the cells were washed twice and analyzed by flow cytometry.

human SLC34A2 [6] = target: T1, human SLC34A2; test: FACS, OVCAR3 cells; remark: listed apart in the source

Binder | EC50 (human SLC34A2 [2]) | Top (MFI) (human SLC34A2 [2]) | ADCC reporter EC50 (human SLC34A2 [3]) | ADCC reporter Top (MFI) (human SLC34A2 [3]) | EC50 (Cynomolgus SLC34A2) | Top (MFI) (Cynomolgus SLC34A2) | EC50 (Rhesus SLC34A2) | Top (MFI) (Rhesus SLC34A2) | EC50 (human SLC34A2 [4]) | Top (MFI) (human SLC34A2 [4]) | EC50 (human SLC34A2 [5]) | Top (MFI) (human SLC34A2 [5]) | EC50 (human SLC34A2 [6]) | Top (MFI) (human SLC34A2 [6]) | cytotoxicity EC50 (human SLC34A2 [1]) | cytotoxicity Inhibition % (human SLC34A2 [1])
xi78D1B10 hIgG1 (antibody, V domains shown, chimeric, hIgG1) VH: QVQLQQPGADLVKPGASVKLSCKASGFTFTSYIIHWVKQTPGQGLEWIGAIYPGNGDTSYIQKFKGRATLTADKSSTTAYMQLGGLTSEDSAVYYCARGTYGSSAWFVYWGQGTLVTVSA VL: DIVLTQSPATLSVTPGDSVSLSCRASQSISNNLYWYQQKSHESPRLLIKYASQSISGIPSRFRGSGSGTDFTLSINSVETEDFGMYFCQQSNSWPLTFGAGTKLELK | 2.52 nM | 27500 MFI | 2.6 nM | 212000 MFI | 1.5 nM | 4400 MFI | 1.58 nM | 16000 MFI | 1.26 nM | 47700 MFI | 2.1 nM | 9860 MFI |  |  | 0.5 nM | 94%
91C9F1.p1.z1 hIgG1 (antibody, V domains shown, humanized hIgG1) VH: QVQLVQSGAEVKKPGSSVKVSCKASGFFFTEYIIHWVRQAPGQGLEWMGGIIPNNDVTNYKQNFRGRVTITADESTSTAYMELSSLRSEDTAVYYCARWRNAYYSAMDSWGQGTTVTVSS VL: DIQMTQSPSSLSASVGDRVTITCTASQDVGTAVAWYQQKPGKVPKLLIYWASTRHTGVPSRFSGSGSGTDFTLTISSLQPEDVATYYCQQYRTSPLTFGGGTKVEIK |  |  |  |  |  |  |  |  |  |  |  |  | 3.78 nM | 34200 MFI |  | 
91C9F1.p1.z3 hIgG1 (antibody, V domains shown, humanized hIgG1) VH: QVQLVQSGAEVKKPGSSVKVSCKASGFFFTEYIIHWVRQAPGQGLEWMGGIIPNNDVTNYKQNFRGRVTITADESTSTAYMELSSLRSEDTAVYYCARWRNAYYSAMDSWGQGTTVTVSS VL: DIQVTQSPSSLSTSVGDRVTITCTASQDVGTAVAWYQQKPGKSPKLLIYWASTRHTGVPERFTGSGSGTDFTLTISSVQPEDVATYFCQQYRTSPLTFGVGTKVEIK |  |  |  |  |  |  |  |  |  |  |  |  | 4.04 nM | 35500 MFI |  | 
91C9F1.p1.z2 hIgG1 (antibody, V domains shown, humanized hIgG1) VH: QVQLVQSGAEVKKPGSSVKVSCKASGFFFTEYIIHWVRQAPGQGLEWMGGIIPNNDVTNYKQNFRGRVTITADESTSTAYMELSSLRSEDTAVYYCARWRNAYYSAMDSWGQGTTVTVSS VL: DIQMTQSPSSLSTSVGDRVTITCTASQDVGTAVAWYQQKPGKSPKLLIYWASTRHTGVPERFSGSGSGTDFTLTISSLQPEDVATYFCQQYRTSPLTFGGGTKVEIK |  |  |  |  |  |  |  |  |  |  |  |  | 3.32 nM | 34500 MFI |  | 

Now from value to binder, other results behind:

EC50 (human SLC34A2 [2]) | Top (MFI) (human SLC34A2 [2]) | ADCC reporter EC50 (human SLC34A2 [3]) | ADCC reporter Top (MFI) (human SLC34A2 [3]) | EC50 (Cynomolgus SLC34A2) | Top (MFI) (Cynomolgus SLC34A2) | EC50 (Rhesus SLC34A2) | Top (MFI) (Rhesus SLC34A2) | EC50 (human SLC34A2 [4]) | Top (MFI) (human SLC34A2 [4]) | EC50 (human SLC34A2 [5]) | Top (MFI) (human SLC34A2 [5]) | EC50 (human SLC34A2 [6]) | Top (MFI) (human SLC34A2 [6]) | Binder | cytotoxicity EC50 (human SLC34A2 [1]) | cytotoxicity Inhibition % (human SLC34A2 [1])
5.43 nM | 27800 MFI | 5.1 nM | 195000 MFI | 7.66 nM | 4710 MFI | 2.85 nM | 18300 MFI | 1.62 nM | 44900 MFI | 9.11 nM | 9660 MFI |  |  | xi87H12B7 hIgG1 (antibody, V domains shown, chimeric, hIgG1) VH: QVQLQQPGAEVVRPGASVKMSCKASGYTFTSYIVHWVKQPPGQGLEWIGAIYPGNGDTSYIQKFKGRATLTADKSSSTVYMQLSSLTSEDSAVYYCARGHYYGSAAWFGFWGQGTLVTVSA VL: DILLTQSPAILSVSPGERVSFSCRASQNIGTSIHWYQQRTNDSPRLLMRYASESVSGIPSRFSGSGSGTDFTLSINSVESEDIADYYCQQSNTWPLTFGAGTKLELK | 0.35 nM | 82.6%
11 nM | 46200 MFI | 3.3 nM | 382000 MFI | 2.51 nM | 3580 MFI | 2.38 nM | 18700 MFI | 2.48 nM | 106000 MFI | 9.05 nM | 10000 MFI |  |  | xi94E9B12 hIgG1 (antibody, V domains shown, chimeric, hIgG1) VH: QVQLQQPGAELVKPGASVKMSCKASGYTFTSYNMQWVKQTYGQGLEWIGAISPGSGETSYNQNFKVKATLTADKISSTAYMQLSSLTSEDSAVYYCARAARAEGWFAYWGQGTLVTVSA VL: DIVMTQSHKFMSTSVGDRVSITCKASQDVGHAVVWYQQKPGQFPKLLIYWASTRHAGVPDRFTGSGSGTDFTLTISNVQSEDLADYFCQQFRSIPLTFGSGTKLEIK | 0.85 nM | 83.6%
